In patent publication US7867500B2, “Cofactor that modulates steroid receptor activities” (The United States of America as represented by the …, priority 2004, dated 2011):

T1: TIF2.4 (Homo sapiens, UniProt Q15596)
T1 sequence (Q15596 624-1010 limits assumed): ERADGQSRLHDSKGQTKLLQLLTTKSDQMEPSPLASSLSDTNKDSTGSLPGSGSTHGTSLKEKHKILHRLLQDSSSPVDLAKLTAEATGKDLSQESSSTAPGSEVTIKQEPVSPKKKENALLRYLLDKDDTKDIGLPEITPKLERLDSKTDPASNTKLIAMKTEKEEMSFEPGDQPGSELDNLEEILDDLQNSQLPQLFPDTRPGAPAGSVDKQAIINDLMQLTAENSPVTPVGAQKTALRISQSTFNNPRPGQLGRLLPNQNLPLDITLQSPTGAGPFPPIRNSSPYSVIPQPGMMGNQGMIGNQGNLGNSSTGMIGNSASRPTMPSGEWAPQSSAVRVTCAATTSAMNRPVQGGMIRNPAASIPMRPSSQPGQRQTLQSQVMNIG

B1: 6-6CL1: STAMP fragment amino acids 623-834, coactivator interaction domain (CID) (protein)
chain: ENTPKENSMKVREWNNKGGHCCKLETQELEPKFNLMQILQDNGNLSKMQARIAFSAYLQHVQIRLMKDSGGQTFSASWAAKEDEQMELVVRFLKRASNNLQHSLRMVLPSRRLALLERRRILAHQLGDFIIVYNKETEQMAEKKSKKKVEEEEEDGVNMENFQEFIRQASEAELEEVLTFYTQKNKSASVFLGTHSKISKNNNNYSDSGAKG
B2: STAMP: SRC-1 and TIF2 Associated Modulatory Protein, 1277 amino acid human polypeptide, expressed from transfected plasmid (protein)
chain: MARDLEETASSSEDEEVISQEDHPCIMWTGGCRRIPVLVFHADAILTKDNNIRVIGERYHLSYKIVRTDSRLVRSILTAHGFHEVHPSSTDYNLMWTGSHLKPFLLRTLSEAQKVNHFPRSYELTRKDRLYKNIIRMQHTHGFKVFHILPQTFLLPAEYAEFCNSYSKDRGPWIVKPVASSRGRGVYLINNPNQISLEENILVSRYINNPLLIDDFKFDVRLYVLVTSYDPLVIYLYEEGLARFATVRYDQGAKNIRNQFMHLTNYSVNKKSGDYVSCDDPEVEDYGNKWSMSAMLRYLKQEGRDTTALMAHVEDLIIKTIISAELAIATACKTFVPHRSSCFELYGFDVLIDSTLKPWLLEVNLSPSLACDAPLDLKIKASMISDMFTVVGFVCQDPAQRASTRPIYPTFESSRRNPFQKPQRCRPLSASDAEMKNLVGSAREKGPGKLGGSVLGLSMEEIKVLRRVKEENDRRGGFIRIFPTSETWEIYGSYLEHKTSMNYMLATRLFQDRMTADGAPELKIESLNSKAKLHAALYERKLLSLEVRKRRRRSSRLRAMRPKYPVITQPAEMNVKTETESEEEEEVALDNEDEEQEASQEESAGFLRENQAKYTPSLTALVENTPKENSMKVREWNNKGGHCCKLETQELEPKFNLMQILQDNGNLSKMQARIAFSAYLQHVQIRLMKDSGGQTFSASWAAKEDEQMELVVRFLKRASNNLQHSLRMVLPSRRLALLERRRILAHQLGDFIIVYNKETEQMAEKKSKKKVEEEEEDGVNMENFQEFIRQASEAELEEVLTFYTQKNKSASVFLGTHSKISKNNNNYSDSGAKGDHPETIMEEVKIKPPKQQQTTEIHSDKLSRFTTSAEKEAKLVYSNSSSGPTATLQKIPNTHLSSVTTSDLSPGPCHHSSLSQIPSAIPSMPHQPTILLNTVSASASPCLHPGAQNIPSPTGLPRCRSGSHTIGPFSSFQSAAHIYSQKLSRPSSAKAGSCYLNKHHSGIAKTQKEGEDASLYSKRYNQSMVTAELQRLAEKQAARQYSPSSHINLLTQQVTNLNLATGIINRSSASAPPTLRPIISPSGPTWSTQSDPQAPENHSSSPGSRSLQTGGFAWEGEVENNVYSQATGVVPQHKYHPTAGSYQLQFALQQLEQQKLQSRQLLDQSRARHQAIFGSQTLPNSNLWTMNNGAGCRISSATASGQKPTTLPQKVVPPPSSCASLVPKPPPNHEQVLRRATSQKASKGSSAEGQLNGLQSSLNPAASVPITSSTDPAHTKI
B3: STAMP834C: STAMP fragment amino acids 834-1277, receptor interaction domain (RID) (protein)
chain: GDHPETIMEEVKIKPPKQQQTTEIHSDKLSRFTTSAEKEAKLVYSNSSSGPTATLQKIPNTHLSSVTTSDLSPGPCHHSSLSQIPSAIPSMPHQPTILLNTVSASASPCLHPGAQNIPSPTGLPRCRSGSHTIGPFSSFQSAAHIYSQKLSRPSSAKAGSCYLNKHHSGIAKTQKEGEDASLYSKRYNQSMVTAELQRLAEKQAARQYSPSSHINLLTQQVTNLNLATGIINRSSASAPPTLRPIISPSGPTWSTQSDPQAPENHSSSPGSRSLQTGGFAWEGEVENNVYSQATGVVPQHKYHPTAGSYQLQFALQQLEQQKLQSRQLLDQSRARHQAIFGSQTLPNSNLWTMNNGAGCRISSATASGQKPTTLPQKVVPPPSSCASLVPKPPPNHEQVLRRATSQKASKGSSAEGQLNGLQSSLNPAASVPITSSTDPAHTKI

Tests used:
TIF2.4 [1] = biological target: T1, TIF2.4; experiment: Cell-free pulldown of [35S]-labeled STAMP constructs by GST/TIF2.4; assay type: binding; details: compared with GST itself
Text: FIGS. 7A and 7B illustrate the domains of STAMP that bind to TIF2.4 (FIG. 7A) and GR (FIG. 7B) in cell-free pulldown assays. Bacterially expressed GST-chimeras (GST/TIF2.4 in FIG. 7A and GST/STAMP segments in FIG. 7B) were immobilized on glutathione-Sepharose beads. The [^35S]methionine labeled STAMP fragments (FIG. 7A) or wild type GR (FIG. 7B) that were retained on the matrix by binding to the GST chimeras were separated on SDS PAGE gels and visualized by autoradiography. Specific binding was seen as when the GST/TIF2.4 or GST/STAMP bands were darker than the GST control bands. […] Similar results were obtained in a second experiment.
Template DNA plasmids (1 μg), 40 μl of Promega TNT (SP6) quick coupled transcription/translation system master mixture, and 2 μl of [^35S]methionine (Amersham Biosciences) were brought up to a total volume of 50 μl with H2O and incubated at 30° C. for 90 min according to the manufacturer's (Promega) recommendations. If hormone stimulation is needed, hormones (Dex, etc) were added into the transcription-translation reaction during the 30° C. incubation to both increase the stability of the synthesized GR and to cause activation of the GR-steroid complexes.
These assays were conducted generally as described (He et al., 2002). Sonicated bacterial lysates (1 ml) containing overexpressed GST, GST/TIF2.4, or GST/STAMP-956C were incubated with 160 μl of glutathione-Sepharose 4B beads for 1 hr at 0° C. The mixture was centrifuged (12,000×g), the supernatant was discarded, and the pellet was washed with phosphate-buffered saline (3×1 ml). Each 20-μl sample of immobilized GST or GST-chimera was then incubated overnight with 10 μl of ^35S-labeled in vitro translation product. The matrix was washed with phosphate-buffered saline (4×1 ml). The immobilized proteins were removed from the beads by heating at 90° C. for 5 min in 20 μl of 2×SDS loading buffer. The proteins were separated on 8-10% SDS-PAGE gels and detected by radio-autoradiography.

TIF2.4 [2] = biological target: T1, TIF2.4; experiment: Mammalian two-hybrid assay in CV-1 cells (pFRLuc reporter) with TIF2.4; assay type: cell-based; design: expressed in transfected cells; host or cells: CV-1
Text: FIG. 2A-2C illustrate the isolation and characterization of the partial clone of the protein that binds to TIF2.4. […] Five clones were obtained but only two (clones I and V) contained a protein that was needed for colony growth in the presence of the pSos/TIF2.4 fusion protein. After initial screening, only clone I (also named 6-6CL1) was selected for further investigation. FIG. 2B and FIG. 2C illustrate the selectivity of 6-6CL1 interactions with TIF2.4 in mammalian two-hybrid assays. Triplicate samples of CV-1 cells in 24-well plates were transiently transfected with the indicated GAL-DBD and VP16-AD plasmids along with the GAL4-regulated reporter, pFRLuc. The relative luciferase activity, normalized for the activity of the internal Renilla control, was determined and plotted as the average±S.D. The much lower activity of GAL/TIF2.4m123 was previously shown not to be due to unequal levels of protein expression (He et al., 2002). Similar results were obtained in three additional experiments. FIG. 2D and FIG. 2E provide a comparison of binding to 6-6CL1 by similarly positioned domains of SRC-1 and TIF2. Triplicate samples of CV-1 cells in 24-well plates were analyzed as in (B&C) after being transiently transfected with GAL±6-6CL1 constructs and pFRLuc reporter along with VP16 chimeras of SRC-1 (FIG. 2D) or TIF2 (FIG. 2E) segments. Similar results for SRC-1 were obtained in two additional experiments (ND=not determined). Western blots (FIG. 2F) indicate that the low activity of TIF2(1140C) (see FIG. 1) is not due to inadequate protein expression.
FIGS. 6A and 6B illustrate the domains of STAMP that interact with TIF2.4 (FIG. 6A) and GR (FIG. 6B) in the mammalian two-hybrid assay. […] These CV-1 cells were also transfected with GAL fused to the indicated segments of STAMP along with the FRLuc reporter and Renilla control plasmids. After determining the relative luciferase activities as described in FIG. 2B and 2C, the average values±S.E.M. from 2-5 experiments were plotted. The average fold increase for VP16/TIF2.4 with GAL/STAMP(623-834) in FIG. 6A was 11.0±3.0 (SEM, n=5) above the VP16 control. The values in parentheses above the data bars in FIG. 6B indicate the fold increased interaction ±1 μM Dex.
These assays were conducted as described (He et al., 2002). In particular, the recommended procedure for the Mammalian Matchmaker two-hybrid assay kit (Clontech) was modified slightly by changing from a chloramphenicol acetyltransferase reporter to a Luciferase Reporter pFRLuc (Stratagene), which is under the control of five repeats of the upstream activating sequence for the binding of GAL4.

Row | Molecule | binding to GST/TIF2.4 (TIF2.4 [1]) | interaction with TIF2.4 (TIF2.4 [2]) | average fold increase for VP16/TIF2.4 above the VP16 control (TIF2.4 [2]; SEM, n=5) [fold]
1 | B1 | strong binding | did interact | 11.0±3.0
2 | B2 | weak interaction |  | 
3 | B3 | neither the amino terminal (N623) nor the C-terminal (834C) fragments exhibit significantly more binding to GST/TIF2.4 than to GST itself | weak response | 
